Assay results taken from patent US20090155176A1 (Novartis, published 2009).

Target: T1, β2 construct alone (mock) expressed in 293 cells (UniProt P05107 23-769)
T1 construct: whole, on cells; Negative control transfectant; also called mock (β2) transfected cells
Experiment: adhesion of transfected 293 cells to plate-bound ICAM-1-Ig

T1 sequence (P05107 23-769): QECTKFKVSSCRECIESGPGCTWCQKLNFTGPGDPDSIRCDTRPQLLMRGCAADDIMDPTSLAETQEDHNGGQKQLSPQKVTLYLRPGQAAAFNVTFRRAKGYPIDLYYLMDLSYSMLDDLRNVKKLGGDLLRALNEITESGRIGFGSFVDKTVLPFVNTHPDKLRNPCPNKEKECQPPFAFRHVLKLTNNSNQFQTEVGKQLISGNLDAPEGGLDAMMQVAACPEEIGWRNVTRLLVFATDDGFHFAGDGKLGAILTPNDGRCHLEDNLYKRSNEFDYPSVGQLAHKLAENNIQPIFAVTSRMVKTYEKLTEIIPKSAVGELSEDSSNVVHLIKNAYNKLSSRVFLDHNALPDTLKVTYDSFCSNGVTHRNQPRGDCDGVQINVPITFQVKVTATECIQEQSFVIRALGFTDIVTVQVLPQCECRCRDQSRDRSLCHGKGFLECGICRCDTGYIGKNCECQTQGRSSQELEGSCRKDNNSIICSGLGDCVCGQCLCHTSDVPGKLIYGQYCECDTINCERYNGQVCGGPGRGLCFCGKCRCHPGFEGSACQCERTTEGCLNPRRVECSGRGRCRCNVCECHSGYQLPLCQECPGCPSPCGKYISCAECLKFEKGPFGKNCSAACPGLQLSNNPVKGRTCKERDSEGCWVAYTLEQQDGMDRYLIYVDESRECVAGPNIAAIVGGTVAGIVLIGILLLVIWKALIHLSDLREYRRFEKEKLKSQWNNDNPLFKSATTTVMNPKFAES

B1: ICAM-1-Ig (Fc fusion, UniProt P05362 28-480, looked up)
chain: QTSVSPSKVILPRGGSVLVTCSTSCDQPKLLGIETPLPKKELLLPGNNRKVYELSNVQEDSQPMCYSNCPDGQSTAKTFLTVYWTPERVELAPLPSWQPVGKNLTLRCQVEGGAPRANLTVVLLRGEKELKREPAVGEPAEVTTTVLVRRDHHGANFSCRTELDLRPQGLELFENTSAPYQLQTFVLPATPPQLVSPRVLEVDTQGTVVCSLDGLFPVSEAQVHLALGDQRLNPTVTYGNDSFSAKASVSVTAEDEGTQRLTCAVILGNQSQETLQTVTIYSFPAPNVILTKPEVSEGTEVTVKCEAHPRAKVTLNGVPAQPLGPRAQLLLKATPEDNGRSFSCSATLEVAGQLIHKNQTRELRVLYGPRLDERDCPGNWTWPENSQQTPMCQAWGNPLPELKCLKDGTFPLPIGESVTVTRDLEGTYLCRARSTQGEVTRKVTVNVLSPRYE
notes: not shown: Ig portion
binding result: no binding
